Results taken from the supplement of paper PMC6757056.
± gives the standard deviation of the averaged measurements.

B1: library; a variant is named by its letters at N, in order (parent)
chain: GCUGUCACCGGUGCUUGGUACGUUAUAUUCAGCCGGUCUGAUGAGUCUNNNNNNAGACGAAACAGC

What was measured:
(6R,S)-folinic acid [1] = variants of: B1; test: FACS-Seq fitted mean relative fluorescence mCherry/BFP without ligand (log10 relative fluorescence); HEK293T overexpressing SLC46A1; higher = higher reporter protein expression; settings: without (6R,S)-folinic acid; ligand present: no
In short: (§1)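 Fluorescence figures are normalized fitted normal means of sequenced bin counts. Enriched, lentivirally transduced HEK293T libraries with a ribozyme-switch mCherry reporter and EF1α-BFP were held 48 h with or without ligand, then sorted into 6 mCherry/BFP bins. PCR-amplified, barcoded genomic DNA from each bin was sequenced on MiSeq. Means of log10(mCherry/BFP) were scaled to five spiked-in control ribozymes.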

(6R,S)-folinic acid [2] = variants of: B1; test: normalized RNA/DNA level without ligand (relative to sTRSVctl = 100) (log10 (% of sTRSVctl)); HEK293T overexpressing SLC46A1; higher = less ribozyme self-cleavage, higher mRNA level; settings: without (6R,S)-folinic acid; ligand present: no
In short: (§2)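 Only sequences with at least 100 DNA reads were analyzed, from HEK293T cells transfected with 4 µg per 6-well well of ribozyme switch library plasmids 72 h before RNA extraction with EDTA. Any ligand was added 1 h before transfection. RNA level was defined as RNA over DNA reads, normalized to a spiked-in non-cleaving sequence or to the top sequences, then scaled and log-transformed. The top set was 25 sequences, and the scaling was ×100 followed by log10.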

(6R,S)-folinic acid [3] = variants of: B1; test: FACS-Seq fitted mean relative fluorescence mCherry/BFP with ligand (log10 relative fluorescence); HEK293T overexpressing SLC46A1; ligand concentration (+) FACS-Seq: 6 mM; higher = higher reporter protein expression; settings: with (6R,S)-folinic acid; ligand present: yes
In short: as §1

(6R,S)-folinic acid [4] = variants of: B1; test: normalized RNA/DNA level with ligand (relative to sTRSVctl = 100) (log10 (% of sTRSVctl)); HEK293T overexpressing SLC46A1; ligand concentration (+) RNA-Seq: 6 mM; higher = less ribozyme self-cleavage, higher mRNA level; settings: with (6R,S)-folinic acid; ligand present: yes
In short: as §2

| Variant | FACS-Seq fitted mean (log10) ((6R,S)-folinic acid [1]) | normalized RNA/DNA level without ligand (log10) ((6R,S)-folinic acid [2]) | FACS-Seq fitted mean (log10) ((6R,S)-folinic acid [3]) | normalized RNA/DNA level with ligand (log10) ((6R,S)-folinic acid [4]) |
| --- | --- | --- | --- | --- |
| GCUGGU | 0.447 ± 0.19 | 1.969 ± 0.0056 | 0.172 ± 0.21 | 1.99 ± 0.032 |
| ACUGUG | 0.5433 ± 0.0045 | 1.853 ± 0.017 | 0.593 ± 0.12 | 2 ± 0.022 |
| GCUGUU | 0.356 ± 0.02 | 2.043 ± 0.0085 | 0.145 ± 0.17 | 2.04 ± 0.042 |
| UCUGUU | 0.459 ± 0.039 | 2.02 ± 0.03 | 0.679 ± 0.29 | 2.0647 ± 0.00045 |
| GCUUAA | 0.522 ± 0.21 | 1.9846 ± 0.00062 | 0.5605 ± 0.0027 | 2.01 ± 0.023 |
| ACUUAA | -0.0941 ± 0.16 | 1.974 ± 0.011 | -0.044 ± 0.31 | 1.98 ± 0.033 |
| GCUUAC | 0.583 ± 0.13 | 2.02 ± 0.026 | 0.554 ± 0.32 | 2.01 ± 0.052 |
| ACUUAC | 0.478 ± 0.045 | 2.009 ± 0.0089 | 0.5359 ± 0.00057 | 2.016 ± 0.014 |
| UCUUAG | 0.183 ± 0.18 | 1.86 ± 0.053 | -0.141 ± 0.14 | 2.02 ± 0.019 |
| ACUUAG | 0.58 ± 0.02 | 1.93 ± 0.0033 | 0.402 ± 0.071 | 1.978 ± 0.0025 |
| CCUUAU | 0.278 ± 0.013 | 2.023 ± 0.0064 | 0.394 ± 0.22 | 2.05 ± 0.022 |
| ACUUAU | 0.328 ± 0.084 | 1.991 ± 0.0041 | 0.329 ± 0.12 | 2.02 ± 0.031 |
| GCUUCA | 0.3988 ± 0.0025 | 2.04 ± 0.033 | 0.641 ± 0.1 | 2.06 ± 0.031 |
| UCUUGC | 0.264 ± 0.036 | 2.018 ± 0.0075 | 0.449 ± 0.17 | 2.009 ± 0.016 |
| UCUUGG | 0.272 ± 0.099 | 1.904 ± 0.0099 | 0.131 ± 0.092 | 1.99 ± 0.022 |
| ACUUGG | 0.457 ± 0.11 | 1.898 ± 0.0091 | 0.649 ± 0.022 | 2 ± 0.049 |
| CCUUUA | 0.459 ± 0.027 | 2.019 ± 0.018 | 0.136 ± 0.057 | 2.06 ± 0.053 |
| GCUUUA | 0.213 ± 0.02 | 1.99 ± 0.026 | 0.0416 ± 0.19 | 1.98 ± 0.05 |
| ACUUUA | 0.348 ± 0.12 | 1.978 ± 0.014 | 0.366 ± 0.15 | 2.01 ± 0.028 |
| UCUUUU | 0.427 ± 0.12 | 2.005 ± 0.0088 | 0.26 ± 0.18 | 2.027 ± 0.013 |
| CGAAAA | 0.189 ± 0.032 | 1.955 ± 0.014 | 0.493 ± 0.17 | 1.98 ± 0.022 |
| GGAAAA | 0.526 ± 0.051 | 1.983 ± 0.011 | 0.455 ± 0.15 | 2.04 ± 0.041 |
| UGAAAA | 0.648 ± 0.13 | 1.98 ± 0.021 | 0.692 ± 0.22 | 1.992 ± 0.019 |
| GGAAAC | 0.359 ± 0.026 | 2.021 ± 0.0084 | 0.243 ± 0.22 | 2.0107 ± 0.00078 |

| Variant | FACS-Seq fitted mean (log10) ((6R,S)-folinic acid [1]) | normalized RNA/DNA level without ligand (log10) ((6R,S)-folinic acid [2]) | FACS-Seq fitted mean (log10) ((6R,S)-folinic acid [3]) | normalized RNA/DNA level with ligand (log10) ((6R,S)-folinic acid [4]) |
| --- | --- | --- | --- | --- |
| UGAAAC | 0.4232 ± 0.0017 | 1.946 ± 0.0065 | 0.578 ± 0.21 | 2 ± 0.042 |
| CGAAAG | -0.0838 ± 0.12 | 1.9719 ± 0.00015 | 0.0563 ± 0.36 | 1.98 ± 0.027 |
| GGAAAG | 0.253 ± 0.061 | 1.955 ± 0.0027 | 0.123 ± 0.011 | 2.02 ± 0.041 |
| UGAAAG | 0.184 ± 0.14 | 1.8081 ± 0.0016 | 0.436 ± 0.3 | 1.98 ± 0.031 |
| UGAAAU | 0.196 ± 0.11 | 1.81 ± 0.027 | 0.516 ± 0.39 | 1.97 ± 0.027 |
| CGAACA | 0.317 ± 0.096 | 1.981 ± 0.0064 | 0.446 ± 0.21 | 1.985 ± 0.0071 |
| CGAACC | 0.4 ± 0.15 | 2.059 ± 0.013 | 0.315 ± 0.15 | 2.02 ± 0.054 |
| UGAACG | 0.174 ± 0.17 | 1.83 ± 0.021 | 0.296 ± 0.022 | 2 ± 0.035 |
| UGAACU | 0.534 ± 0.077 | 1.988 ± 0.016 | 0.35 ± 0.14 | 2 ± 0.032 |
| GGAAGA | 0.0463 ± 0.13 | 1.993 ± 0.0044 | 0.239 ± 0.2 | 2.04 ± 0.031 |
| UGAAGA | 0.139 ± 0.053 | 1.877 ± 0.0079 | 0.513 ± 0.11 | 1.98 ± 0.027 |
| UGAAGG | 0.12 ± 0.034 | 1.645 ± 0.012 | 0.569 ± 0.24 | 1.96 ± 0.042 |
| UGAAGU | 0.167 ± 0.1 | 1.907 ± 0.015 | 0.347 ± 0.17 | 2.01 ± 0.036 |
| CGAAUA | 0.314 ± 0.065 | 1.954 ± 0.0097 | 0.45 ± 0.14 | 1.978 ± 0.018 |
| GGAAUC | -0.317 ± 0.23 | 2.055 ± 0.0066 | -0.244 ± 0.51 | 2.05 ± 0.023 |
| GGAAUG | 0.589 ± 0.011 | 1.973 ± 0.0085 | 0.668 ± 0.1 | 2.03 ± 0.029 |
| UGAAUG | 0.0422 ± 0.017 | 1.758 ± 0.0067 | 0.2668 ± 0.0023 | 1.98 ± 0.021 |
| GGAAUU | 0.362 ± 0.1 | 2.046 ± 0.0046 | 0.236 ± 0.27 | 2.061 ± 0.016 |
| GGACAA | 0.352 ± 0.14 | 1.98 ± 0.0036 | 0.748 ± 0.25 | 1.99 ± 0.02 |
| UGACAA | -0.327 ± 0.12 | 1.952 ± 0.0062 | -0.72 ± 0.24 | 2.024 ± 0.018 |
| UGACAG | 0.327 ± 0.16 | 1.82 ± 0.022 | 0.34 ± 0.028 | 1.971 ± 0.0094 |
| AGACAG | 0.659 ± 0.017 | 1.941 ± 0.0083 | 0.854 ± 0.36 | 2.01 ± 0.026 |
| UGACCA | 0.061 ± 0.12 | 2.042 ± 0.0098 | -0.0235 ± 0.23 | 2.05 ± 0.039 |
| AGACCA | 0.1 ± 0.31 | 2.05 ± 0.0039 | 0.262 ± 0.072 | 2.03 ± 0.028 |

| Variant | FACS-Seq fitted mean (log10) ((6R,S)-folinic acid [1]) | normalized RNA/DNA level without ligand (log10) ((6R,S)-folinic acid [2]) | FACS-Seq fitted mean (log10) ((6R,S)-folinic acid [3]) | normalized RNA/DNA level with ligand (log10) ((6R,S)-folinic acid [4]) |
| --- | --- | --- | --- | --- |
| GGACCG | 0.438 ± 0.24 | 2.065 ± 0.0084 | 0.0255 ± 0.12 | 2.02 ± 0.031 |
| AGACCU | 0.618 ± 0.15 | 2.02 ± 0.041 | 0.641 ± 0.01 | 2.05 ± 0.027 |
| GGACGA | 0.242 ± 0.039 | 2.022 ± 0.011 | 0.493 ± 0.027 | 2.042 ± 0.011 |
| UGACGA | 0.311 ± 0.052 | 1.9519 ± 0.0017 | 0.493 ± 0.015 | 2.04 ± 0.014 |
| AGACGA | -0.49 ± 0.11 | 1.99 ± 0.015 | -0.617 ± 0.18 | 2.02 ± 0.03 |
| UGACGC | 0.28 ± 0.091 | 2.017 ± 0.0099 | 0.284 ± 0.026 | 2.033 ± 0.017 |
| AGACGC | 0.389 ± 0.13 | 2.018 ± 0.016 | 0.336 ± 0.11 | 2.01 ± 0.042 |
| UGACGG | -0.24 ± 0.039 | 1.748 ± 0.0057 | 0.0392 ± 0.065 | 1.99 ± 0.044 |
| GGACGU | 0.583 ± 0.13 | 1.955 ± 0.015 | 0.529 ± 0.32 | 1.95 ± 0.024 |
| GGACUA | 0.287 ± 0.07 | 1.989 ± 0.0053 | 0.202 ± 0.044 | 1.97 ± 0.033 |
| UGACUG | 0.14 ± 0.2 | 1.857 ± 0.0074 | 0.368 ± 0.08 | 1.99 ± 0.054 |
| CGAGAA | 0.311 ± 0.059 | 1.9567 ± 0.0017 | 0.426 ± 0.19 | 2.01 ± 0.039 |
| GGAGAA | 0.29 ± 0.13 | 1.961 ± 0.013 | 0.201 ± 0.0069 | 2.01 ± 0.022 |
| UGAGAA | 0.5 ± 0.038 | 1.917 ± 0.011 | 0.533 ± 0.26 | 1.98 ± 0.026 |
| GGAGAC | 0.571 ± 0.081 | 2.0007 ± 0.00018 | 0.512 ± 0.3 | 2.009 ± 0.0055 |
| UGAGAG | 0.384 ± 0.054 | 1.689 ± 0.012 | 0.526 ± 0.022 | 1.92 ± 0.02 |
| GGAGAU | 0.0885 ± 0.2 | 1.959 ± 0.0067 | -0.253 ± 0.085 | 1.99 ± 0.049 |
| UGAGAU | 0.457 ± 0.23 | 1.83 ± 0.043 | 0.572 ± 0.015 | 1.98 ± 0.041 |
| GGAGCC | 0.129 ± 0.011 | 2.0238 ± 0.0014 | 0.0129 ± 0.069 | 2.026 ± 0.02 |
| UGAGCG | 0.157 ± 0.15 | 1.736 ± 0.012 | 0.218 ± 0.39 | 1.98 ± 0.024 |
| UGAGCU | 0.387 ± 0.081 | 2 ± 0.013 | 0.479 ± 0.087 | 2.019 ± 0.012 |
| AGAGCU | 0.596 ± 0.05 | 2.019 ± 0.006 | 0.275 ± 0.32 | 2.01 ± 0.029 |
| UGAGGA | 0.309 ± 0.047 | 1.839 ± 0.0062 | 0.598 ± 0.2 | 1.99 ± 0.031 |
